# Assay results published in PMC9482650, “Quantitative fragmentomics allow affinity mapping of interactomes” (Nature Communications, 2022).
# T1: ARHGEF11, O15085
# T1 sequence (O15085 42-136, limits assumed, looked up): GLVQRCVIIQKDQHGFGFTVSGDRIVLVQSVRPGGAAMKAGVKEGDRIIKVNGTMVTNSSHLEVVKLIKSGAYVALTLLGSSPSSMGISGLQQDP
# T2: MPP2, Q14168
# T2 sequence (Q14168 180-250, limits assumed, looked up): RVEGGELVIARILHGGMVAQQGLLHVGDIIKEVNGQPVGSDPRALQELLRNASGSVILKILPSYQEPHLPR
# T3: APBA1_2, Q02410
# T3 sequence (Q02410 742-832, limits assumed, looked up): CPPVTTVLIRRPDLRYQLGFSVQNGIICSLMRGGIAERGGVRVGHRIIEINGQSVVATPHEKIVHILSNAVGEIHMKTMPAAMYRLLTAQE
# T4: PDZD7_3, Q9H5P4
# T4 sequence (Q9H5P4 857-944, limits assumed, looked up): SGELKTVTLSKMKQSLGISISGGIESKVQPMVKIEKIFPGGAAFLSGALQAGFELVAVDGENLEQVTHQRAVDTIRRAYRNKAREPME
# T5: APBA2_1, Q99767
# T5 sequence (Q99767 563-664, limits assumed, looked up): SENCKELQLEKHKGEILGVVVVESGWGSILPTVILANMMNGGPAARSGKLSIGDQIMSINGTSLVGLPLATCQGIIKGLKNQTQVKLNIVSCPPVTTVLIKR
# T6: MPP7, Q5T2T1
# T6 sequence (Q5T2T1 134-230, limits assumed, looked up): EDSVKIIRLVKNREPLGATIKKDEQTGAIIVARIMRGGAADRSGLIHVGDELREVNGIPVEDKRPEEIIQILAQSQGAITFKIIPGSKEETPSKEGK
# T7: NHERF3_3, Q5T2W1
# T7 sequence (Q5T2W1 238-333, limits assumed, looked up): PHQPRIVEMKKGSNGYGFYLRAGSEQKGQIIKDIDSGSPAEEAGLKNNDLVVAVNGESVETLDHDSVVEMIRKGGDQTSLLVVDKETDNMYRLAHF
# T8: HTRA4, P83105
# T8 sequence (P83105 378-476, limits assumed, looked up): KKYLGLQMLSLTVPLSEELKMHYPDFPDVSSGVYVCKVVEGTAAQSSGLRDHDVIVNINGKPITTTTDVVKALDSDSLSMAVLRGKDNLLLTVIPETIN
# T9: MPDZ_12, O75970
# T9 sequence (O75970 1857-1958, limits assumed, looked up): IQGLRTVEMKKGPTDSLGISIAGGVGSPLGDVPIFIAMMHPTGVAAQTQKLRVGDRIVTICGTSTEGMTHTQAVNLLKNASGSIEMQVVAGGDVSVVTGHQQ
# T10: GRIP1_7, Q9Y3R0
# T10 sequence (Q9Y3R0 999-1096, limits assumed, looked up): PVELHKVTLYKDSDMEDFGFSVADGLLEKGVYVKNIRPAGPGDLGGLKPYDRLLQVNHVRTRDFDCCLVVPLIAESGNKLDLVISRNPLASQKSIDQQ
# T11: DVL3, Q92997
# T11 sequence (Q92997 244-331, limits assumed, looked up): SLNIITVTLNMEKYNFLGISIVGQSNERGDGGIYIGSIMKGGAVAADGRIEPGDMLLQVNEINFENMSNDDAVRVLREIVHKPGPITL
# T12: TIAM2, Q8IVF5
# T12 sequence (Q8IVF5 885-986, limits assumed, looked up): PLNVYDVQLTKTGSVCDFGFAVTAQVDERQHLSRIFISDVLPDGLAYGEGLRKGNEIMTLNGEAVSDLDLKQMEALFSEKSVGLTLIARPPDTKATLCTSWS
# T13: LNX2_2, Q8N448
# T13 sequence (Q8N448 334-432, limits assumed, looked up): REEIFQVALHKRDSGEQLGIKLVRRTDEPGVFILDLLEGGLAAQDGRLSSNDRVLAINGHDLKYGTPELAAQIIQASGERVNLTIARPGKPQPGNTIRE
# T14: SNTG1, Q9NSN8
# T14 sequence (Q9NSN8 52-150, limits assumed, looked up): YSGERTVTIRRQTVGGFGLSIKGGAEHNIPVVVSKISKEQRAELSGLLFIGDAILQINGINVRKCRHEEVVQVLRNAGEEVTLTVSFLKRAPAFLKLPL
# B1: GJD4, Q96KN9 (peptide)
# chain: HLRARKSEWV
# B2: TRAF7, Q6Q0C0 (peptide)
# chain: VDSTVKVWTC
# B3: ABCA7, Q8IZY2 (peptide)
# chain: DDPSTAETVL
# Target: T1, ARHGEF11, O15085
# Assay: holdup assay
# Design: key: below the threshold = too weak to quantify, mostly under pKd 3.1 to 4
# Conditions: plain residues with an end cap or a label only (N-terminal biotin on a linker: ado-ado)
row,pKd,Binder
1,below the threshold,B1
2,4.21,B2
3,3.98,B3

# Target: T2, MPP2, Q14168
# Assay: holdup assay
# Design: key: below the threshold = too weak to quantify, mostly under pKd 3.1 to 4
# Conditions: plain residues with an end cap or a label only (N-terminal biotin on a linker: ado-ado)
row,pKd,Binder
1,below the threshold,B1
2,below the threshold,B2
3,below the threshold,B3

# Target: T3, APBA1_2, Q02410
# Assay: holdup assay
# Design: key: below the threshold = too weak to quantify, mostly under pKd 3.1 to 4
# Conditions: plain residues with an end cap or a label only (N-terminal biotin on a linker: ado-ado)
row,pKd,Binder
1,4.73,B1
2,3.5,B2
3,below the threshold,B3

# Target: T4, PDZD7_3, Q9H5P4
# Assay: holdup assay
# Design: key: below the threshold = too weak to quantify, mostly under pKd 3.1 to 4
# Conditions: plain residues with an end cap or a label only (N-terminal biotin on a linker: ado-ado)
row,pKd,Binder
1,below the threshold,B1
2,below the threshold,B2
3,4.98,B3

# Target: HTRA2, O43464
# Assay: holdup assay
# Design: key: below the threshold = too weak to quantify, mostly under pKd 3.1 to 4
# Conditions: plain residues with an end cap or a label only (N-terminal biotin on a linker: ado-ado)
# HTRA2, O43464, sequence (O43464 355-458): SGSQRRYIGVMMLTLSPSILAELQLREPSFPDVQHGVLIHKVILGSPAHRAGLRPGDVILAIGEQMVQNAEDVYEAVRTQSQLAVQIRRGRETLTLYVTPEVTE
row,pKd,Binder
1,3.94,B1
2,4.68,B2
3,below the threshold,B3

# Target: T5, APBA2_1, Q99767
# Assay: holdup assay
# Design: key: below the threshold = too weak to quantify, mostly under pKd 3.1 to 4
# Conditions: plain residues with an end cap or a label only (N-terminal biotin on a linker: ado-ado)
row,pKd,Binder
1,below the threshold,B1
2,below the threshold,B2
3,below the threshold,B3

# Target: GRIP2_3, Q9C0E4
# Assay: holdup assay
# Design: key: below the threshold = too weak to quantify, mostly under pKd 3.1 to 4
# Conditions: plain residues with an end cap or a label only (N-terminal biotin on a linker: ado-ado)
# GRIP2_3, Q9C0E4, sequence (Q9C0E4 238-339): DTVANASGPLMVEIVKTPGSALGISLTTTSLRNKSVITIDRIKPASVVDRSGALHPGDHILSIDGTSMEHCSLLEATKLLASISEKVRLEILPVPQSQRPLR
row,pKd,Binder
1,below the threshold,B1
2,below the threshold,B2
3,below the threshold,B3

# Target: Inadl_3, Q8NI35
# Assay: holdup assay
# Design: key: below the threshold = too weak to quantify, mostly under pKd 3.1 to 4
# Conditions: plain residues with an end cap or a label only (N-terminal biotin on a linker: ado-ado)
# Inadl_3, Q8NI35, sequence (Q8NI35 359-469): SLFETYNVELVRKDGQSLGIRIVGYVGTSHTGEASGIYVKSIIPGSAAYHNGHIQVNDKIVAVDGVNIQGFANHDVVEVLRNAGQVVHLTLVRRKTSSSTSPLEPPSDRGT
row,pKd,Binder
1,below the threshold,B1
2,4.4,B2
3,3.73,B3

# Target: SCRIB_1, Q14160
# Assay: holdup assay
# Design: key: below the threshold = too weak to quantify, mostly under pKd 3.1 to 4
# Conditions: plain residues with an end cap or a label only (N-terminal biotin on a linker: ado-ado)
# SCRIB_1, Q14160, sequence (Q14160 718-814): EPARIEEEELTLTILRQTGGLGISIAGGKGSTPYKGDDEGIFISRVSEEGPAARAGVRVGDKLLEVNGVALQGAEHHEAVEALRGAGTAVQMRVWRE
row,pKd,Binder
1,below the threshold,B1
2,3.66,B2
3,4.37,B3

# Target: TJP1_2, Q07157
# Assay: holdup assay
# Design: key: below the threshold = too weak to quantify, mostly under pKd 3.1 to 4
# Conditions: plain residues with an end cap or a label only (N-terminal biotin on a linker: ado-ado)
# TJP1_2, Q07157, sequence (Q07157 181-274): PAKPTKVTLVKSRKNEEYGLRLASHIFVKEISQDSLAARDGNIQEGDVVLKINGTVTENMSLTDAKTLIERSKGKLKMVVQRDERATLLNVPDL
row,pKd,Binder
1,4.97,B1
2,below the threshold,B2
3,below the threshold,B3

# Target: T6, MPP7, Q5T2T1
# Assay: holdup assay
# Design: key: below the threshold = too weak to quantify, mostly under pKd 3.1 to 4
# Conditions: plain residues with an end cap or a label only (N-terminal biotin on a linker: ado-ado)
row,pKd,Binder
1,below the threshold,B1
2,3.84,B2
3,below the threshold,B3

# Target: T7, NHERF3_3, Q5T2W1
# Assay: holdup assay
# Design: key: below the threshold = too weak to quantify, mostly under pKd 3.1 to 4
# Conditions: plain residues with an end cap or a label only (N-terminal biotin on a linker: ado-ado)
row,pKd,Binder
1,below the threshold,B1
2,3.48,B2
3,below the threshold,B3

# Target: LIMK2, P53671
# Assay: holdup assay
# Design: key: below the threshold = too weak to quantify, mostly under pKd 3.1 to 4
# Conditions: plain residues with an end cap or a label only (N-terminal biotin on a linker: ado-ado)
# LIMK2, P53671, sequence (P53671 143-248): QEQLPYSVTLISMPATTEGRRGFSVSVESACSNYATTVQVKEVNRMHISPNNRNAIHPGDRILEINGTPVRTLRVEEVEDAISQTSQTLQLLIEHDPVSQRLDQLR
row,pKd,Binder
1,below the threshold,B1
2,below the threshold,B2
3,below the threshold,B3

# Target: T8, HTRA4, P83105
# Assay: holdup assay
# Design: key: below the threshold = too weak to quantify, mostly under pKd 3.1 to 4
# Conditions: plain residues with an end cap or a label only (N-terminal biotin on a linker: ado-ado)
row,pKd,Binder
1,4.51,B1
2,4.14,B2
3,below the threshold,B3

# Target: T9, MPDZ_12, O75970
# Assay: holdup assay
# Design: key: below the threshold = too weak to quantify, mostly under pKd 3.1 to 4
# Conditions: plain residues with an end cap or a label only (N-terminal biotin on a linker: ado-ado)
row,pKd,Binder
1,3.57,B1
2,3.52,B2
3,below the threshold,B3

# Target: T10, GRIP1_7, Q9Y3R0
# Assay: holdup assay
# Design: key: below the threshold = too weak to quantify, mostly under pKd 3.1 to 4
# Conditions: plain residues with an end cap or a label only (N-terminal biotin on a linker: ado-ado)
row,pKd,Binder
1,below the threshold,B1
2,below the threshold,B2
3,below the threshold,B3

# Target: T11, DVL3, Q92997
# Assay: holdup assay
# Design: key: below the threshold = too weak to quantify, mostly under pKd 3.1 to 4
# Conditions: plain residues with an end cap or a label only (N-terminal biotin on a linker: ado-ado)
row,pKd,Binder
1,3.79,B1
2,3.85,B2
3,below the threshold,B3

# Target: DLG5_1, Q8TDM6
# Assay: holdup assay
# Design: key: below the threshold = too weak to quantify, mostly under pKd 3.1 to 4
# Conditions: plain residues with an end cap or a label only (N-terminal biotin on a linker: ado-ado)
# DLG5_1, Q8TDM6, sequence (Q8TDM6 617-713): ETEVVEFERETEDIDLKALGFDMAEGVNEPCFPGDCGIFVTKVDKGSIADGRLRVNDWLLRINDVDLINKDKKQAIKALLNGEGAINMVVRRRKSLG
row,pKd,Binder
1,below the threshold,B1
2,3.56,B2
3,below the threshold,B3

# Target: T12, TIAM2, Q8IVF5
# Assay: holdup assay
# Design: key: below the threshold = too weak to quantify, mostly under pKd 3.1 to 4
# Conditions: plain residues with an end cap or a label only (N-terminal biotin on a linker: ado-ado)
row,pKd,Binder
1,4.1,B1
2,4.22,B2
3,3.99,B3

# Target: T13, LNX2_2, Q8N448
# Assay: holdup assay
# Design: key: below the threshold = too weak to quantify, mostly under pKd 3.1 to 4
# Conditions: plain residues with an end cap or a label only (N-terminal biotin on a linker: ado-ado)
row,pKd,Binder
1,5,B1
2,5.42,B2
3,below the threshold,B3

# Target: MAST2, Q6P0Q8
# Assay: holdup assay
# Design: key: below the threshold = too weak to quantify, mostly under pKd 3.1 to 4
# Conditions: plain residues with an end cap or a label only (N-terminal biotin on a linker: ado-ado)
# MAST2, Q6P0Q8, sequence (Q6P0Q8 1099-1202): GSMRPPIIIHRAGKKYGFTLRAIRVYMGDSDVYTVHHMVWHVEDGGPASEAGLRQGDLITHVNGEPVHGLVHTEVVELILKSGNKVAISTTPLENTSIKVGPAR
row,pKd,Binder
1,below the threshold,B1
2,3.74,B2
3,5.64,B3

# Target: GOPC, Q9HD26
# Assay: holdup assay
# Design: key: below the threshold = too weak to quantify, mostly under pKd 3.1 to 4
# Conditions: plain residues with an end cap or a label only (N-terminal biotin on a linker: ado-ado)
row,pKd,Binder
1,below the threshold,B1
2,below the threshold,B2
3,below the threshold,B3

# Target: T14, SNTG1, Q9NSN8
# Assay: holdup assay
# Design: key: below the threshold = too weak to quantify, mostly under pKd 3.1 to 4
# Conditions: plain residues with an end cap or a label only (N-terminal biotin on a linker: ado-ado)
row,pKd,Binder
1,3.6,B1
2,3.61,B2
3,3.66,B3

# Target: ARHGEF12, Q9NZN5-2
# Assay: holdup assay
# Design: key: below the threshold = too weak to quantify, mostly under pKd 3.1 to 4
# Conditions: plain residues with an end cap or a label only (N-terminal biotin on a linker: ado-ado)
# ARHGEF12, Q9NZN5-2, sequence (Q9NZN5 other isoform, or with tags, fused parts or gaps): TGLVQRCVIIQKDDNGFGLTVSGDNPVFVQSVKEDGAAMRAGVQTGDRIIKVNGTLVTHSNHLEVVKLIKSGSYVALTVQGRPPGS
row,pKd,Binder
1,below the threshold,B1
2,3.5,B2
3,4.63,B3
